For the assay, the target named is Cytochrome bX. The assay is described as follows: native MS; 5 µM purified CytbX in 0.2 M ammonium acetate pH 8.0 with lauryldimethylamine oxide at 2x critical micelle concentration; Q-Exactive UHMR; dimer of the protein with itself.

Cytochrome bX had a stoichiometry N of 2.

Values taken from publication PMC10120048.
